Measurements published in patent publication US20220370608A1 (HUMANITAS MIRASOLE S P A, published 2022).

Molecular target: T1, receptor of advanced glycation end products (RAGE) on NK cells (human, UniProt Q15109 23-404)
T1 construct: whole, on cells; Endogenous receptor on primary NK cells from healthy donors; also called Receptor for Advance Glycation End product
Experiment: flow cytometry of RAGE on NK cells treated with rhCHI3L1, and phospho-JNK flow cytometry (binding inferred)
Method: (a) Dot plots for RAGE expression on NK cells (left) and MFI of RAGE expression on NK cells treated with rhCHI3L1. (b) MFI of lytic granules staining in NKs treated with CHI3L1 (50 ng/ml) or anti-RAGE Blocking antibody (10 ug/ml) for 1 h. (c) effect of RAGE blockade on NK cells cytotoxicity (d) Basal P-JNK levels in NK cells treated with CHI3L1 (e) P-JNK levels in NK cells after 10 min of stimulation by RAGE ligand S100A8/A9 (10 ug/ml) alone or with rhCHI3L1 (100 ng/ml) and (f) P-JNK levels in time during ADCC of NK cells incubated with SKBR3 targets at (5:1) E:T ratio. All plots are representative of at least two
Single-cell suspensions, of blood or from cell culture, were obtained and incubated with Fc receptor-blocking antibody before being stained on ice. Dead cells were excluded by live/dead staining using fixable live/dead stain dyes (Thermofisher scientific). Primary NK cells [from healthy donors, after informed consent] were gated as singlets, CD14neg, FSC−. SSC appropriate for lymphocytes, CD3neg, CD16/CD56 poscells. Intracellular staining was performed using a fixation and permeabilization buffer (BD Bioscience). […] Stained cells were analyzed on FACSCanto II cytometer (BD Biosciences). […] Flow cytometry data were analyzed with FlowJo v10 software (Tree Star).

T1 sequence (Q15109 23-404): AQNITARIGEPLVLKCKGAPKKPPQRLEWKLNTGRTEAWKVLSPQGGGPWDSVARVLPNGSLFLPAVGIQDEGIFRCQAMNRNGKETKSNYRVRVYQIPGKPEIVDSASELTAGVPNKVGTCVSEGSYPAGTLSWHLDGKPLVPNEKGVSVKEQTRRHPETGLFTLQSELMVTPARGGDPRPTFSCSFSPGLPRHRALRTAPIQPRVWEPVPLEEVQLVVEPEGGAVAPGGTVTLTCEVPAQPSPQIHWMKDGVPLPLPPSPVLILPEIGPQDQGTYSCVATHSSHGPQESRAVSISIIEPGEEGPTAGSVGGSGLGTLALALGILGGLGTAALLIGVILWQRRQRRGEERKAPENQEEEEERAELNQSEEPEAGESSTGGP

binding result: binds
B1: recombinant human Chitinase 3-like 1 (rhCHI3L1) (ligand)
chain: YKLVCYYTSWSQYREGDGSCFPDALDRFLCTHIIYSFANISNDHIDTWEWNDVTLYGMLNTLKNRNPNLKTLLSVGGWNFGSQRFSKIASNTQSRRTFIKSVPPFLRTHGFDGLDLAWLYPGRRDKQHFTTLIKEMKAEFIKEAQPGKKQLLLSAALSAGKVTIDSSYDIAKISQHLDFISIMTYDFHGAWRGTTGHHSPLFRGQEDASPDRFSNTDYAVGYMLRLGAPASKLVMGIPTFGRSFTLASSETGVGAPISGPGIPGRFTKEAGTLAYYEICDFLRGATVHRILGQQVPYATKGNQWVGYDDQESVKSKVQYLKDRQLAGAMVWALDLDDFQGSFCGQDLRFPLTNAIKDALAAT
notes: Recombinant protein; also called YKL-40; CHI311
